According to patent US20250101074A1 (Affibody, published 2025):

Tests used:
Assay in all cases: SPR (Biacore), PEP07843 immobilized, analyte protein injected
hIL-17E = target: T1, hIL-17E (human, UniProt Q9H293 33-177)
T1 sequence (looked up): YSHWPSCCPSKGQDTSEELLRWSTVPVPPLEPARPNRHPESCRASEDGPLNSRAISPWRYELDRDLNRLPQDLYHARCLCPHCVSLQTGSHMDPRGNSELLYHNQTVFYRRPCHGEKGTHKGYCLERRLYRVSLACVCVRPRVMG
Protocol: (§1) In the binding experiment, HBS-EP was used as running buffer and the flow rate was 30 μl/min. […] The analytes, i.e. the panels of 24 or 12 different proteins, were each diluted in HBS-EP or HBS-EP supplemented with 500 mM NaCl to final concentrations of from 0.4 to 250 nM and injected for 5 min. […] The results were analyzed using the BiaEvaluation software.
(§2) The Z-ABD-Z polypeptides were injected over surfaces containing HSA followed by injection of the analyte proteins.

hIL23 = target: T2, hIL23 (human, UniProt Q9NPF7 20-189; P29460 23-328)
T2 construct: the two subunits are general knowledge
T2 sequence (looked up) 1: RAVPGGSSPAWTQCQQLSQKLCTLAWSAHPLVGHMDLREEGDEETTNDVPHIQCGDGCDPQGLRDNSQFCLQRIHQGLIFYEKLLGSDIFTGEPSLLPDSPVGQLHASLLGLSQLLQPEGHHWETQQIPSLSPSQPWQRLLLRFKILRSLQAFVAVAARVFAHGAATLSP
T2 sequence (looked up) 2: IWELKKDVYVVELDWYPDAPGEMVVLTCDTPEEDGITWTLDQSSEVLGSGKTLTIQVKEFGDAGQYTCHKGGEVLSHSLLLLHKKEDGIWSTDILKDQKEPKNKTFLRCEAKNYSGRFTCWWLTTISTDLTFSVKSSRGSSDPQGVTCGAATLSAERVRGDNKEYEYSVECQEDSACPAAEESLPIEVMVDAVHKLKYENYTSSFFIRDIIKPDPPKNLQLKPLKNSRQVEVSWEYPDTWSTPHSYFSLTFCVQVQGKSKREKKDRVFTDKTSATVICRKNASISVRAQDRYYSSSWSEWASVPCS
Protocol: as §1, §2

IL-1R1 = target: T3, IL-1R1 (UniProt P14778 18-332, limits assumed)
T3 sequence (looked up): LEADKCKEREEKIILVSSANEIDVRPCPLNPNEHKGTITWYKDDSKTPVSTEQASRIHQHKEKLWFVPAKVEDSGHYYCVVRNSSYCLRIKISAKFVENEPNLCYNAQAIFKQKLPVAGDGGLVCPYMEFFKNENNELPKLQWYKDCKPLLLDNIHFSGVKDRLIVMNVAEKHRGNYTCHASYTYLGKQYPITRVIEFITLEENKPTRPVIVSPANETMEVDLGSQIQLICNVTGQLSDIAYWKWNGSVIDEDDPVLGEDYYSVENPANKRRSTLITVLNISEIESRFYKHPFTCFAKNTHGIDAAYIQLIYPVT
Protocol: as §1, §2

Measured: binding result

GSSLAEAKEAANAELDSYGVSDFYKRLIDKAKTVEGVEALKDAILAALP (designed binder) [ABD variant PEP07843]
no binding (tested: 50, 250 nM): hIL-17E | hIL23 | IL-1R1
